Measured values published in patent US20240270846A1 (published 2024).

B1: GLS3000 H27dV one-arm antibody (H chain CE115HA000) (antibody, human IgG1, kappa, L234A L235A, N297A, name in Kabat numbering)
heavy: QVQLVESGGGVVQPGRSLRLSCAASGFTFSNAWMHWVRQAPGKGLEWVAQIKAKSNNYATYYAESVKGRFTISRDDSKNSLYLQMNSLKTEDTAVYYCRYVHYGAYYGVDAWGQGTTVTVSSASTKGPSVFPLAPSSKSTSGGTAALGCLVKDYFPEPVTVSWNSGALTSGVHTFPAVLQSSGLYSLSSVVTVPSSSLGTQTYICNVNHKPSNTKVDKKVEPKSCDKTHTCPPCPAPEAAGGPSVFLFPPKPKDTLMISRTPEVTCVVVDVSHEDPEVKFNWYVDGVEVHNAKTKPREEQYASTYRVVSVLTVLHQDWLNGKEYKCKVSNKALPAPIEKTISKAKGQPREPQVYTLPPSRCELTKNQVSLSCAVKGFYPSDIAVEWESNGQPENNYKTTPPVLDSDGSFFLVSKLTVDKSRWQQGNVFSCSVMHEALHNHYTQKSLSLSPDYKDDDDK
chain: EPKSSDKTHTCPPCPAPELLGGPSVFLFPPKPKDTLMISRTPEVTCVVVDVSHEDPEVKFNWYVDGVEVHNAKTKPREEQYNSTYRVVSVLTVLHQDWLNGKEYKCKVSNKALPAPIEKTISKAKGQPREPQVCTLPPSRDELTKNQVSLWCLVKGFYPSDIAVEWESNGQPENNYKTTPPVLDSDGSFFLYSKLTVDKSRWQQGNVFSCSVMHEALHNRYTQKSLSLSP
light: DIVMTQSPLSLPVTPGEPASISCRSSQSLVVSNRNTYLHWYQQKPGQAPRLLIYKVSNRFSGVPDRFSGSGSGTDFTLKISRVEAEDVGVYYCGQGTQVPYTFGQGTKLEIKRTVAAPSVFIFPPSDEQLKSGTASVVCLLNNFYPREAKVQWKVDNALQSGNSQESVTEQDSKDSTYSLSSTLTLSKADYEKHKVYACEVTHQGLSSPVTKSFNRGEC
notes: one-arm antibody
B2: GLS3000 K50A one-arm antibody (H chain CE115HA000) (antibody, human IgG1, kappa, L234A L235A, N297A, name in Kabat numbering)
heavy: QVQLVESGGGVVQPGRSLRLSCAASGFTFSNAWMHWVRQAPGKGLEWVAQIKAKSNNYATYYAESVKGRFTISRDDSKNSLYLQMNSLKTEDTAVYYCRYVHYGAYYGVDAWGQGTTVTVSSASTKGPSVFPLAPSSKSTSGGTAALGCLVKDYFPEPVTVSWNSGALTSGVHTFPAVLQSSGLYSLSSVVTVPSSSLGTQTYICNVNHKPSNTKVDKKVEPKSCDKTHTCPPCPAPEAAGGPSVFLFPPKPKDTLMISRTPEVTCVVVDVSHEDPEVKFNWYVDGVEVHNAKTKPREEQYASTYRVVSVLTVLHQDWLNGKEYKCKVSNKALPAPIEKTISKAKGQPREPQVYTLPPSRCELTKNQVSLSCAVKGFYPSDIAVEWESNGQPENNYKTTPPVLDSDGSFFLVSKLTVDKSRWQQGNVFSCSVMHEALHNHYTQKSLSLSPDYKDDDDK
chain: EPKSSDKTHTCPPCPAPELLGGPSVFLFPPKPKDTLMISRTPEVTCVVVDVSHEDPEVKFNWYVDGVEVHNAKTKPREEQYNSTYRVVSVLTVLHQDWLNGKEYKCKVSNKALPAPIEKTISKAKGQPREPQVCTLPPSRDELTKNQVSLWCLVKGFYPSDIAVEWESNGQPENNYKTTPPVLDSDGSFFLYSKLTVDKSRWQQGNVFSCSVMHEALHNRYTQKSLSLSP
light: DIVMTQSPLSLPVTPGEPASISCRSSQSLVHSNRNTYLHWYQQKPGQAPRLLIYAVSNRFSGVPDRFSGSGSGTDFTLKISRVEAEDVGVYYCGQGTQVPYTFGQGTKLEIKRTVAAPSVFIFPPSDEQLKSGTASVVCLLNNFYPREAKVQWKVDNALQSGNSQESVTEQDSKDSTYSLSSTLTLSKADYEKHKVYACEVTHQGLSSPVTKSFNRGEC
notes: one-arm antibody
B3: GLS3000 H34A one-arm antibody (H chain CE115HA000) (antibody, human IgG1, kappa, L234A L235A, N297A, name in Kabat numbering)
heavy: QVQLVESGGGVVQPGRSLRLSCAASGFTFSNAWMHWVRQAPGKGLEWVAQIKAKSNNYATYYAESVKGRFTISRDDSKNSLYLQMNSLKTEDTAVYYCRYVHYGAYYGVDAWGQGTTVTVSSASTKGPSVFPLAPSSKSTSGGTAALGCLVKDYFPEPVTVSWNSGALTSGVHTFPAVLQSSGLYSLSSVVTVPSSSLGTQTYICNVNHKPSNTKVDKKVEPKSCDKTHTCPPCPAPEAAGGPSVFLFPPKPKDTLMISRTPEVTCVVVDVSHEDPEVKFNWYVDGVEVHNAKTKPREEQYASTYRVVSVLTVLHQDWLNGKEYKCKVSNKALPAPIEKTISKAKGQPREPQVYTLPPSRCELTKNQVSLSCAVKGFYPSDIAVEWESNGQPENNYKTTPPVLDSDGSFFLVSKLTVDKSRWQQGNVFSCSVMHEALHNHYTQKSLSLSPDYKDDDDK
chain: EPKSSDKTHTCPPCPAPELLGGPSVFLFPPKPKDTLMISRTPEVTCVVVDVSHEDPEVKFNWYVDGVEVHNAKTKPREEQYNSTYRVVSVLTVLHQDWLNGKEYKCKVSNKALPAPIEKTISKAKGQPREPQVCTLPPSRDELTKNQVSLWCLVKGFYPSDIAVEWESNGQPENNYKTTPPVLDSDGSFFLYSKLTVDKSRWQQGNVFSCSVMHEALHNRYTQKSLSLSP
light: DIVMTQSPLSLPVTPGEPASISCRSSQSLVHSNRNTYLAWYQQKPGQAPRLLIYKVSNRFSGVPDRFSGSGSGTDFTLKISRVEAEDVGVYYCGQGTQVPYTFGQGTKLEIKRTVAAPSVFIFPPSDEQLKSGTASVVCLLNNFYPREAKVQWKVDNALQSGNSQESVTEQDSKDSTYSLSSTLTLSKADYEKHKVYACEVTHQGLSSPVTKSFNRGEC
notes: one-arm antibody
B4: GLS3000 H27dY one-arm antibody (H chain CE115HA000) (antibody, human IgG1, kappa, L234A L235A, N297A, name in Kabat numbering)
heavy: QVQLVESGGGVVQPGRSLRLSCAASGFTFSNAWMHWVRQAPGKGLEWVAQIKAKSNNYATYYAESVKGRFTISRDDSKNSLYLQMNSLKTEDTAVYYCRYVHYGAYYGVDAWGQGTTVTVSSASTKGPSVFPLAPSSKSTSGGTAALGCLVKDYFPEPVTVSWNSGALTSGVHTFPAVLQSSGLYSLSSVVTVPSSSLGTQTYICNVNHKPSNTKVDKKVEPKSCDKTHTCPPCPAPEAAGGPSVFLFPPKPKDTLMISRTPEVTCVVVDVSHEDPEVKFNWYVDGVEVHNAKTKPREEQYASTYRVVSVLTVLHQDWLNGKEYKCKVSNKALPAPIEKTISKAKGQPREPQVYTLPPSRCELTKNQVSLSCAVKGFYPSDIAVEWESNGQPENNYKTTPPVLDSDGSFFLVSKLTVDKSRWQQGNVFSCSVMHEALHNHYTQKSLSLSPDYKDDDDK
chain: EPKSSDKTHTCPPCPAPELLGGPSVFLFPPKPKDTLMISRTPEVTCVVVDVSHEDPEVKFNWYVDGVEVHNAKTKPREEQYNSTYRVVSVLTVLHQDWLNGKEYKCKVSNKALPAPIEKTISKAKGQPREPQVCTLPPSRDELTKNQVSLWCLVKGFYPSDIAVEWESNGQPENNYKTTPPVLDSDGSFFLYSKLTVDKSRWQQGNVFSCSVMHEALHNRYTQKSLSLSP
light: DIVMTQSPLSLPVTPGEPASISCRSSQSLVYSNRNTYLHWYQQKPGQAPRLLIYKVSNRFSGVPDRFSGSGSGTDFTLKISRVEAEDVGVYYCGQGTQVPYTFGQGTKLEIKRTVAAPSVFIFPPSDEQLKSGTASVVCLLNNFYPREAKVQWKVDNALQSGNSQESVTEQDSKDSTYSLSSTLTLSKADYEKHKVYACEVTHQGLSSPVTKSFNRGEC
notes: one-arm antibody
B5: GLS3000 H27dW one-arm antibody (H chain CE115HA000) (antibody, human IgG1, kappa, L234A L235A, N297A, name in Kabat numbering)
heavy: QVQLVESGGGVVQPGRSLRLSCAASGFTFSNAWMHWVRQAPGKGLEWVAQIKAKSNNYATYYAESVKGRFTISRDDSKNSLYLQMNSLKTEDTAVYYCRYVHYGAYYGVDAWGQGTTVTVSSASTKGPSVFPLAPSSKSTSGGTAALGCLVKDYFPEPVTVSWNSGALTSGVHTFPAVLQSSGLYSLSSVVTVPSSSLGTQTYICNVNHKPSNTKVDKKVEPKSCDKTHTCPPCPAPEAAGGPSVFLFPPKPKDTLMISRTPEVTCVVVDVSHEDPEVKFNWYVDGVEVHNAKTKPREEQYASTYRVVSVLTVLHQDWLNGKEYKCKVSNKALPAPIEKTISKAKGQPREPQVYTLPPSRCELTKNQVSLSCAVKGFYPSDIAVEWESNGQPENNYKTTPPVLDSDGSFFLVSKLTVDKSRWQQGNVFSCSVMHEALHNHYTQKSLSLSPDYKDDDDK
chain: EPKSSDKTHTCPPCPAPELLGGPSVFLFPPKPKDTLMISRTPEVTCVVVDVSHEDPEVKFNWYVDGVEVHNAKTKPREEQYNSTYRVVSVLTVLHQDWLNGKEYKCKVSNKALPAPIEKTISKAKGQPREPQVCTLPPSRDELTKNQVSLWCLVKGFYPSDIAVEWESNGQPENNYKTTPPVLDSDGSFFLYSKLTVDKSRWQQGNVFSCSVMHEALHNRYTQKSLSLSP
light: DIVMTQSPLSLPVTPGEPASISCRSSQSLVWSNRNTYLHWYQQKPGQAPRLLIYKVSNRFSGVPDRFSGSGSGTDFTLKISRVEAEDVGVYYCGQGTQVPYTFGQGTKLEIKRTVAAPSVFIFPPSDEQLKSGTASVVCLLNNFYPREAKVQWKVDNALQSGNSQESVTEQDSKDSTYSLSSTLTLSKADYEKHKVYACEVTHQGLSSPVTKSFNRGEC
notes: one-arm antibody
B6: GLS3000 H34D one-arm antibody (H chain CE115HA000) (antibody, human IgG1, kappa, L234A L235A, N297A, name in Kabat numbering)
heavy: QVQLVESGGGVVQPGRSLRLSCAASGFTFSNAWMHWVRQAPGKGLEWVAQIKAKSNNYATYYAESVKGRFTISRDDSKNSLYLQMNSLKTEDTAVYYCRYVHYGAYYGVDAWGQGTTVTVSSASTKGPSVFPLAPSSKSTSGGTAALGCLVKDYFPEPVTVSWNSGALTSGVHTFPAVLQSSGLYSLSSVVTVPSSSLGTQTYICNVNHKPSNTKVDKKVEPKSCDKTHTCPPCPAPEAAGGPSVFLFPPKPKDTLMISRTPEVTCVVVDVSHEDPEVKFNWYVDGVEVHNAKTKPREEQYASTYRVVSVLTVLHQDWLNGKEYKCKVSNKALPAPIEKTISKAKGQPREPQVYTLPPSRCELTKNQVSLSCAVKGFYPSDIAVEWESNGQPENNYKTTPPVLDSDGSFFLVSKLTVDKSRWQQGNVFSCSVMHEALHNHYTQKSLSLSPDYKDDDDK
chain: EPKSSDKTHTCPPCPAPELLGGPSVFLFPPKPKDTLMISRTPEVTCVVVDVSHEDPEVKFNWYVDGVEVHNAKTKPREEQYNSTYRVVSVLTVLHQDWLNGKEYKCKVSNKALPAPIEKTISKAKGQPREPQVCTLPPSRDELTKNQVSLWCLVKGFYPSDIAVEWESNGQPENNYKTTPPVLDSDGSFFLYSKLTVDKSRWQQGNVFSCSVMHEALHNRYTQKSLSLSP
light: DIVMTQSPLSLPVTPGEPASISCRSSQSLVHSNRNTYLDWYQQKPGQAPRLLIYKVSNRFSGVPDRFSGSGSGTDFTLKISRVEAEDVGVYYCGQGTQVPYTFGQGTKLEIKRTVAAPSVFIFPPSDEQLKSGTASVVCLLNNFYPREAKVQWKVDNALQSGNSQESVTEQDSKDSTYSLSSTLTLSKADYEKHKVYACEVTHQGLSSPVTKSFNRGEC
notes: one-arm antibody

Target: T1, CD3 epsilon homodimer protein (UniProt P07766 23-126)
T1 construct: also called CD3 (CD3 epsilon)
T1 sequence (P07766 23-126): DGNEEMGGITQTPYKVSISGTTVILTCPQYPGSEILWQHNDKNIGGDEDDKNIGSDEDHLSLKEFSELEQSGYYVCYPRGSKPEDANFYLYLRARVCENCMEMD
Experiment: SPR, CD3e homodimer on chip;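 note: surface plasmon resonance at 25 degrees C, antibodies flowed as analyte over CD3 epsilon homodimer amine-coupled to a CM4 chip, running buffer HBS-EP+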

Going from B1 to B2, the “ratio of amounts bound (altered form / unaltered GLS3000 antibody)” value falls from 0.3 to 0.23.

First: B3
Second: B4
The “ratio of amounts bound (altered form / unaltered GLS3000 antibody)” value of the first is higher: 1.06 for the first, 0.64 for the second.

Going from B5 to B6, the “ratio of amounts bound (altered form / unaltered GLS3000 antibody)” value falls from 0.39 to 0.22.
